Laboratory results: article PMC10314698

Target: soluble BCMA (B-cell maturation antigen) (UniProt Q02223)
Experiment: SPR

Sequence of soluble BCMA (B-cell maturation antigen) (Q02223 1-54): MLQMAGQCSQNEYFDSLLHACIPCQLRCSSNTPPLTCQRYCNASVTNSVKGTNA

For LCAR-B38M (Nanjing_GSI5022_Dual_VHH), the Kd was 2.89 nM and the koff was 0.0162 s⁻¹.
